Holding throughout (assay): fluorescence polarisation; cf-labeled peptide (10 µL of 40 nmol/L) added to a 2-fold dilution series (22 steps, 10 µL) of pure 70S ribosome, 50S or 30S subunit; ribosome preparation buffer (20 mmol/L HEPES-KOH, 6 mmol/L MgCl2, 30 mmol/L NH4Cl, pH 7.6); 28 ± 1 °C, 90 min; apparent Kd (average over at least two or three sites)
What all share (details): both partners purified
For orientation: Polarisation of emitted light reports the rotation of a fluorescent probe.

The target of assay [1] is purified E. coli 30S ribosomal subunit (E. coli (endogenous in MRE600)).
The target of assay [2] is purified E. coli 50S ribosomal subunit (E. coli (endogenous in MRE600), UniProt P60723 1-201; P61175 1-110; P0ADZ0 1-100; P0A7M6 1-63; P0A7J3 1-165).
The target in assay [3] is purified E. coli 70S ribosome (E. coli (endogenous in BW25113), UniProt P60723 1-201; P61175 1-110; P0ADZ0 1-100; P0A7M6 1-63; P0A7J3 1-165).

[ ]: non-standard residue; d: D form. Gu = N-terminal tetramethylguanidine; Orn = NCCC[C@H](N)C(=O)O

Gu-[Orn](5(6)‑carboxyfluorescein)NNRPVYIPRPRPPHPRL-OH [cf-Api137 (5(6)-carboxyfluorescein-labeled Api137, Gu-ONNRPVYIPRPRPPHPRL-OH)]: the “fold weaker binding than to the 50S subunit” value in assay [1] is roughly 10 fold. Further, the Kd in assay [2] was 2200 nM; in assay [3], 4730 nM.

Take Gu-[Orn](5(6)‑carboxyfluorescein)NNRPVYIPRPRPPHPRL-NH2 [cf-Api88 (5(6)-carboxyfluorescein-labeled Api88, Gu-ONNRPVYIPRPRPPHPRL-NH2)]: in assay [1], the “fold weaker binding than to the 50S subunit” value was roughly 23 fold. Further, the Kd in assay [2] was found to be 600 nM; in assay [3] it was 1800 nM.

These data come from PMC11087509, “Multimodal binding and inhibition of bacterial ribosomes by the antimicrobial peptides Api137 and Api88” (Nature Communications, 2024).
